Experiments:
MiCy-DEVD-mKO = biological target: T1, MiCy-DEVD-mKO
T1 chain: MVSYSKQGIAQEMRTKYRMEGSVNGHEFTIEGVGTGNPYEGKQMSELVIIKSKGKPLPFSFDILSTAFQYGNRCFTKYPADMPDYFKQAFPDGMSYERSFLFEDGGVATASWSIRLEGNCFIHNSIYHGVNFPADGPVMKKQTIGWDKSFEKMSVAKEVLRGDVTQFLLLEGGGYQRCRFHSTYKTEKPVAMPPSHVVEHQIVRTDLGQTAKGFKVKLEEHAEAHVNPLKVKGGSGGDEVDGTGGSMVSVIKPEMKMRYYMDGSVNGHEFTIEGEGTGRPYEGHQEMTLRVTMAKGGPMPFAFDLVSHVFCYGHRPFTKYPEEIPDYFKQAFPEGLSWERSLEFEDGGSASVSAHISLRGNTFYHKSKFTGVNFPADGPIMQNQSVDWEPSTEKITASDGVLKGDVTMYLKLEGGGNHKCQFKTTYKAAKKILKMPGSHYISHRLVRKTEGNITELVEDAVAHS

[1] = biological target: keima 616-(spacer) DEVD-ECFP
[2] = biological target: ECFP-(spacer) DEVD-keima 616

B1: Caspase-3 (protein)
chain: SGISLDNSYKMDYPEMGLCIIINNKNFHKSTGMTSRSGTDVDAANLRETFRNLKYEVRNKNDLTREEIVELMRDVSKEDHSKRSSFVCVLLSHGEEGIIFGTNGPVDLKKITNFFRGDRCRSLTGKPKLFIIQACRGTELDCGIETDSGVDDDMACHKIPVEADFLYAYSTAPGYYSWRNSKDGSWFIQSLCAMLKQYADKLEFMHILTRVNRKVATEFESFSFDATFHAKKQIPCIVSMLTKELYFYH
- fluorescence spectrum (FRET, excitation at 440 nm) before and after the reaction with Caspase-3 (MiCy-DEVD-mKO): after the addition thereof, FRET disappeared due to the cleavage of the linker and the fluorescence peak (559 nm) of mKO thereby disappeared, so that only the fluorescence peak (495 nm) of MiCy remained
- SDS-PAGE and Native-PAGE bands after the reaction with Caspase-3 [1]: When keima 616-DEVD-ECFP was reacted with Caspase-3, the bands with the sizes of keima 616 and ECFP could be confirmed
- amplitude of the fluorescence cross-correlation function, Gcross(0) [1]: A rapid decrease in Gcross(0) was observed as a result of addition of Caspase-3
- amplitude of the fluorescence cross-correlation function, Gcross(0) [2]: A rapid decrease in Gcross(0) was observed as a result of addition of Caspase-3
- amplitude of the fluorescence cross-correlation function, Gcross(0) (EGFP-DEVD-mRFP1 (x2)): A decrease in Gcross(0) was observed as a result of addition of Caspase-3

— US20070292909
